Experimental findings from publication PMC12757075 (2026) are described below.

The target of this test is actin filament barbed end (Oryctolagus cuniculus, UniProt P68135). In words: pyrene-actin barbed-end elongation kinetic assay.

The Kd is a measure of binding affinity in units of concentration. Read a high Kd as weaker binding.

B1: vinculin V1ab4 (protein)
chain: MPVFHTRTIESILEPVAQQISHLVIMHKEGEVHGKAIPDLTAPVAAVQAAVSNLVRVGKETVQTTEDQILKRDMPPAFIKVENACTKLVQAAQMLQSDPYSVPARDYLIHGSEGILSGTSDLLLTFDEAEVRKIIRVCKGILEYLTVAEVVETMEDLVTYTKNLGPGMTKMAKMIDERQQELTHQEHRVMLVNSMNTVKELLPVLISAMKIFVTTKNSKNQGIEEALKNRNFTVEKMSAEINEIIRVLQLTSWDEDAWASKDTEAMKRALASIDSKLNQAKGWLRDPSASPGDAGEQAIRQILDEAGKVGELCAGKERREILGTCKMLGQMTDQVADLRARGQGSSPVAMQKAQQVSQGLDVLTAKVENAARKLEAMTNSKQSIAKKIDAAQNWLADPNGGPEGEEQIRGALAEARKIAELCDDPKERDDILRSLGEISALTSKLADLRRQGKGDSPEARALAKQVATALQNLQTKTNRAVANSRPAKAAVHLEGKIEQAQRWIDNPTVDDRGVGQAAIRGLVAEGHRLANVMMGPYRQDLLAKCDRVDQLTAQLADLAARGEGESPQARALASQLQDSLKDLKARMQEAMTQEVSDVFSDTTTPIKLLAVAATAPPDAPNREEVFDERAANFENHSGKLGATAEKAAAVGTANKSTVEGIQASVKTARELTPQVVSAARILLRNPGNQAAYEHFETMKNQWIDNVEKMTGLVDEAIDTKSLLDASEEAIKKDLDKCKVAMANIQPQMLVAGATSIARRANRILLVAKREVEISKDPKFREAVKAASDELSKTISPMVMDAKAVAGNISDPGLQKSFLDSGYRILGAVAKVREAFQPQEPDFPPPPPDLEQLRLTDELAPPKPPLPEGEVPPPRPPPPEEKDEEFPEQKAGEVINQPMMMAARQLHDEARKWSSKPGIPAAEVGIGVVAEADAADAAGFPVPPDMEDDYEPELLLMPSNQPVNQPILAAAQSLHREATKWSSKGNDIIAAAKRMALLMAEMSRLVRGGSGTKRALIQCAKDIAKASDEVTRLAKEVAKQCTDKRIRTNLLQVCERIPTISTQLKILSTVKATMLGRTNISDEESEQATEMLVHNAQNLMQSVKETVREAEAASIKIRTDAGFTLRWVRKTPWYQ
Take B1: the Kd is around 1.26 µM.
